Consider 2 molecules from PMC6761829 (Nature structural & molecular biology, 2019).

Where no end group is shown, it is not given here.

The stoichiometry N is the number of molecules, sites or subunits per partner or assembly.

Sequences and labels used below:
B1: Full-length Drosophila melanogaster spastin with a Walker B mutation (E583Q) (enzyme, UniProt Q8I0P1 1-758, looked up)
chain: MVRTKNQSSSSSASSSSTKSPIKSSSGAGSSGGGLGGRQSTHRSSSASNVAAVVAGGSSAAGGGSSSNRRSPGSSPDGDDDTTTTDDLTPTTCSPRSGHHHSYGGYSSSVHKQNLYVVSFPIIFLFNVLRSLIYQLFCIFRYLYGASTKVIYRPHRRDCNIEIVVQNSSKEQQQSLNHPSELNREGDGQEQQLSNQPQRFRPIQPLEMAANRPGGGYSPGPGDPLLAKQKHHHRRAFEYISKALKIDEENEGHKELAIELYRKGIKELEDGIAVDCWSGRGDVWDRAQRLHDKMQTNLSMARDRLHFLALREQDLQMQRLSLKEKQKEEAQSKPQKTREPMLAGMTNEPMKLRVRSSGYGPKATTSAQPTASGRKLTIGSKRPVNLAVANKSQTLPRNLGSKTSVGAVQRQPAKTAATPPAVRRQFSSGRNTPPQRSRTPINNNGPSGSGASTPVVSVKGVEQKLVQLILDEIVEGGAKVEWTDIAGQDVAKQALQEMVILPSVRPELFTGLRAPAKGLLLFGPPGNGKTLLARAVATECSATFLNISAASLTSKYVGDGEKLVRALFAVARHMQPSIIFIDQVDSLLSERSSSEHEASRRLKTEFLVEFDGLPGNPDGDRIVVLAATNRPQELDEAALRRFTKRVYVSLPDEQTRELLLNRLLQKQGSPLDTEALRRLAKITDGYSGSDLTALAKDAALEPIRELNVEQVKCLDISAMRAITEQDFHSSLKRIRRSVAPQSLNSYEKWSQDYGDITI
B2: VGSEEEEEEEEEE peptide labeled with Atto488 (peptide)
peptide: Atto488-VGSEEEEEEEEEE

The series “AUC” deals with the molecule itself. Kind of series: AUC.
The target of series [1] is B1. The series is described as follows: AUC.

On to B1, for which, in “AUC”, the “stoichiometry N” value is 6.

Take B2: the binding result in series [1] was “binds”.
